Results published in patent US20220332795A1 (ARO BIOTHERAPEUTICS, published 2022).
Positions count from the first letter of the chain named.

B1: SEQ ID NO 213 (designed binder, not shown: small tags and cut ends)
chain: MLPAPKNLVVSRVTEDSARLSWTAPDAAFDSFYIAYAEPRPDGEAILLGVPGSERSYDLTGLKPGTEYSVLIHGVKGGLLSSPLFTT
B2: SEQ ID NO 268 (designed binder, not shown: small tags and cut ends)
chain: B1 chain with L47Y, G49E
B3: SEQ ID NO 216 (designed binder, not shown: small tags and cut ends)
chain: MLPAPKNLVVSRVTEDSARLSWTAPDAAFDSFYIAYAEPRPDGEAISLSVPGSERSYDLTGLKPGTEYSVLIHGVKGGLLSSPPKFTT
B4: SEQ ID NO 238 (designed binder, not shown: small tags and cut ends)
chain: B3 chain with A24T, S47R, S49Q, P84L, K85G
B5: SEQ ID NO 270 (designed binder, not shown: small tags and cut ends)
chain: MLPAPKNLVVSRVTEDSARLSWTAPDAAFDSFAIEYCETKMCGEAIVLTVPGSERSYDLTGLKPGTEYRVPIPGVKGGTASLPLSAIFTT
B6: SEQ ID NO 221 (designed binder, not shown: small tags and cut ends)
chain: MLPAPKNLVVSRVTEDSARLSWTAPDAAFDSFFIGYLEPQPPGEAIFLDVPGSERSYDLTGLKPGTEYNVTIQGVKGGFPSPLTAFFTT
B7: SEQ ID NO 204 (designed binder, not shown: small tags and cut ends)
chain: MLPAPKNLVVSRVTEDSARLSWTAPDAAFDSFFIGYLEPQPPGEAILLWVPGSERSYDLTGLKPGTEYNVTIQGVKGGFPSQFTT
B8: SEQ ID NO 232 (designed binder, not shown: small tags and cut ends)
chain: B7 chain with L47Y, W49D, Q82T
B9: SEQ ID NO 243 (designed binder, not shown: small tags and cut ends)
chain: MLPAPKNLVVSRVTEDSARLSWTAPDAAFDSFFIGYLEPQPPGEAIHLAVPGSERSYDLTGLKPGTEYNVTIQGVKGGFPSVPLAAVFTT
B10: SEQ ID NO 208 (designed binder, not shown: small tags and cut ends)
chain: B9 chain with H47V, V82Y, A85V, V87A
B11: SEQ ID NO 251 (designed binder, not shown: small tags and cut ends)
chain: B9 chain with H47G, A49W, V82D, A85Q
B12: SEQ ID NO 222 (designed binder, not shown: small tags and cut ends)
chain: B9 chain with H47V, A49D, V82H, V87A
B13: SEQ ID NO 231 (designed binder, not shown: small tags and cut ends)
chain: B9 chain with A49Y, V82D, A85D
B14: SEQ ID NO 223 (designed binder, not shown: small tags and cut ends)
chain: B9 chain with H47G, A85Q, V87N
B15: SEQ ID NO 235 (designed binder, not shown: small tags and cut ends)
chain: B9 chain with H47Q, A49T, V82L, A85S, V87D
B16: SEQ ID NO 203 (designed binder, not shown: small tags and cut ends)
chain: B9 chain with H47V, A49L, V87F
B17: SEQ ID NO 210 (designed binder, not shown: small tags and cut ends)
chain: B9 chain with H47N, A49Q, V82F, A85S
B18: SEQ ID NO 205 (designed binder, not shown: small tags and cut ends)
chain: MLPAPKNLVVSRVTEDSARLSWTAPDAAFDSFFIGYLEPQPPGEAILLGVPGSERSYDLTGLKPGTEYNVTIQGVKGGFPSMPLHPLVALFTT
B19: SEQ ID NO 264 (designed binder, not shown: small tags and cut ends)
chain: MLPAPKNLVVSRVTEDSARLSWTAPDAAFDSFYIAYAEPRPDGEAINLSVPGSERSYDLTGLKPGTEYSVLIHGVKGGLLSSPLDAYFTT
B20: SEQ ID NO 269 (designed binder, not shown: small tags and cut ends)
chain: B19 chain with N47W, S49D
B21: SEQ ID NO 265 (designed binder, not shown: small tags and cut ends)
chain: B19 chain with N47V, S49E, D85T, Y87S
B22: SEQ ID NO 267 (designed binder, not shown: small tags and cut ends)
chain: B19 chain with N47G, S49W, D85V
B23: SEQ ID NO 266 (designed binder, not shown: small tags and cut ends)
chain: B19 chain with N47R, S49Q, D85G, Y87S
B24: ABX1100 (designed binder)
chain: B19 chain with N47L, S49Q, E54C, D85T, Y87I
modifications: siRNA pair with linker (attachment residue not stated for this molecule)
notes: FN3 domain-siRNA conjugate; also called CD71 FN3 domain siRNA conjugate

target: T1, human CD71 extracellular domain (human, UniProt P02786 89-760, biotinylated); test: solution ELISA screen, signal ratio to HSA control
T1 construct: extracellular domain; also called hCD71; huCD71 ECD
T1 sequence (P02786 other isoform, or with tags, fused parts or gaps): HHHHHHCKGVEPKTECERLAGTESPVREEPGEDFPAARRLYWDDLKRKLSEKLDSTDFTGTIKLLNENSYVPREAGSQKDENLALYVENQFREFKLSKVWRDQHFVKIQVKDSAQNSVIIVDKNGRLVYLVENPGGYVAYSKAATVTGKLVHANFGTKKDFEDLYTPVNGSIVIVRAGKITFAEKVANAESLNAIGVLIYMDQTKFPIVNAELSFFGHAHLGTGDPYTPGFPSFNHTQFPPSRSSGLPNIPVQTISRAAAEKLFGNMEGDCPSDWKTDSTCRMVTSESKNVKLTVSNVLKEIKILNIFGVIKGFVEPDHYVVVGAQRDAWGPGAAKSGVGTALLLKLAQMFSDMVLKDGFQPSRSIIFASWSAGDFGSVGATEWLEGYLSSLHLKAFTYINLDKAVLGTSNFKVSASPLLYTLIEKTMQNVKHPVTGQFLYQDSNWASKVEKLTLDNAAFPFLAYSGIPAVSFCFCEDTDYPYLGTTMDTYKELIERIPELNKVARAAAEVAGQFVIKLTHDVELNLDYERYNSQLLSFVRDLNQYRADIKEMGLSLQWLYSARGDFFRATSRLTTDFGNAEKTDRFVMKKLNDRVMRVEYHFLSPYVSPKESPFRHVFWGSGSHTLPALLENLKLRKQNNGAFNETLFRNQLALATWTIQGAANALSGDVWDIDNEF

hCD71:HSA	Binder
24.6 ratio	B1
23.6 ratio	B2
21.6 ratio	B3
31 ratio	B4
51.6 ratio	B5
16.4 ratio	B6
164 ratio	B7
14.3 ratio	B8
63.8 ratio	B9
184 ratio	B10
96.1 ratio	B11
94.5 ratio	B12
112 ratio	B13
105 ratio	B14
39.5 ratio	B15
91.6 ratio	B16
49.7 ratio	B17
18.1 ratio	B18
15.1 ratio	B19
40.8 ratio	B20
188 ratio	B21
19.2 ratio	B22
11.6 ratio	B23

target: T2, CD71 apical domain (human, UniProt P02786 189-383, limits assumed); test: solution ELISA screen, signal ratio to HSA control
T2 construct: domain: apical domain
T2 sequence (P02786 189-383 limits assumed): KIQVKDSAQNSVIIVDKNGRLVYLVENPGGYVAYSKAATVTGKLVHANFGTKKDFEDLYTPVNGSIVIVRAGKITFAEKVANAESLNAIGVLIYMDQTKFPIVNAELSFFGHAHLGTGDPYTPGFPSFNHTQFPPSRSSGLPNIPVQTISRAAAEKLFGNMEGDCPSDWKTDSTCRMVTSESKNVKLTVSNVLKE

apical domain:HSA	Binder
28.9 ratio	B1
0.8 ratio	B2
0.7 ratio	B3
1.1 ratio	B4
101 ratio	B5
0.5 ratio	B6
317 ratio	B7
1.3 ratio	B8
103 ratio	B9
226 ratio	B10
220 ratio	B11
69 ratio	B12
331 ratio	B13
197 ratio	B14
70.1 ratio	B15
219 ratio	B16
85 ratio	B17
1 ratio	B18
177 ratio	B19
279 ratio	B20
235 ratio	B21
186 ratio	B22
117 ratio	B23

target: T1, human CD71 extracellular domain; test: solution ELISA screen (luminescence)

RLU	Binder
1.73e+06 RLU	B1
2.77e+06 RLU	B2
4.15e+06 RLU	B3
3.07e+06 RLU	B4
3.32e+06 RLU	B5
966000 RLU	B6
3.29e+06 RLU	B7
1.08e+06 RLU	B8
1.97e+06 RLU	B9
3e+06 RLU	B10
2.51e+06 RLU	B11
1.47e+06 RLU	B12
2.32e+06 RLU	B13
1.93e+06 RLU	B14
943000 RLU	B15
2.38e+06 RLU	B16
2.41e+06 RLU	B17
2.81e+06 RLU	B18
368000 RLU	B19
812000 RLU	B20
5.77e+06 RLU	B21
573000 RLU	B22
418000 RLU	B23

target: T2, CD71 apical domain; test: solution ELISA screen (luminescence)

RLU	Binder
2.03e+06 RLU	B1
94800 RLU	B2
142000 RLU	B3
112000 RLU	B4
6.49e+06 RLU	B5
31800 RLU	B6
6.35e+06 RLU	B7
95400 RLU	B8
3.19e+06 RLU	B9
3.7e+06 RLU	B10
5.73e+06 RLU	B11
1.07e+06 RLU	B12
6.83e+06 RLU	B13
3.6e+06 RLU	B14
1.67e+06 RLU	B15
5.69e+06 RLU	B16
4.12e+06 RLU	B17
150000 RLU	B18
4.32e+06 RLU	B19
5.56e+06 RLU	B20
7.21e+06 RLU	B21
5.55e+06 RLU	B22
4.23e+06 RLU	B23

target: T3, human CD71 on cells (human, UniProt P02786 1-760); test: Membrane Proteome Array, flow cytometry on QT6 cells
T3 construct: whole, on cells; also called the receptor
T3 sequence (P02786 whole entry): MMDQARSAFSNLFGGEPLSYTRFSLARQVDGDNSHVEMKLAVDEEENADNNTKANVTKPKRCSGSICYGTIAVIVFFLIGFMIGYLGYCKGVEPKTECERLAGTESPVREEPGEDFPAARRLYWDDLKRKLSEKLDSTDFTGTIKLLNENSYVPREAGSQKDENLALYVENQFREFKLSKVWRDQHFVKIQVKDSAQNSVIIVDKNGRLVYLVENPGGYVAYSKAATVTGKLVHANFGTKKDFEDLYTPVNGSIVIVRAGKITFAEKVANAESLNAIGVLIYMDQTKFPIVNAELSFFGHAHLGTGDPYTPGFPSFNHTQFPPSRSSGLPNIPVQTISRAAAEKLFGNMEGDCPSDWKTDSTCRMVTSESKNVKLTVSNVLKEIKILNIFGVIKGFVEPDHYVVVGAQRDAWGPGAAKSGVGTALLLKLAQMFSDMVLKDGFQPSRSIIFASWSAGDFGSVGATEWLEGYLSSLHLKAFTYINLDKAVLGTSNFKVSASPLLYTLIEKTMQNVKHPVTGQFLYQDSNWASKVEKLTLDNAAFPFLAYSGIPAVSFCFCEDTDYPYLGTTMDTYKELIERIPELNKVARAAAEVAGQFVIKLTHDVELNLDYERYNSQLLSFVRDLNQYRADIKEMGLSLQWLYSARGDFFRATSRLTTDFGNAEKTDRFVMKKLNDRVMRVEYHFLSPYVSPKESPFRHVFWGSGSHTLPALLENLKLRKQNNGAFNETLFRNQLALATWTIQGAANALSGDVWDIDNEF

Binder	binding result
B24	binds
